Experimental data from PMC4498696.

What was measured:
AM14 IgG (human) = assay: ELISA
[1] = target: biotinylated prefusion RSV F DS-Cav1, subtype B (respiratory syncytial virus, subtype B | not stated) (UniProt P13843)
[2] = target: purified prefusion F N426D (respiratory syncytial virus, strain A2 | not stated) (UniProt P03420); assay: ELISA
[3] = target: full-length prefusion F N426D (RSV F residues 1-574 with the DS-Cav1 stabilizing mutations and N426D (respiratory syncytial virus, strain not stated) (UniProt P03420)); assay: flow cytometry on cells
[4] = target: biotinylated prefusion RSV F DS-Cav1, subtype B (respiratory syncytial virus, subtype B | not stated) (UniProt P13843); assay: Luminex bead binding assay; biotinylated RSV F proteins coupled to avidin-coated MagPlex beads (1 μg per 50,000 beads); IgG in 10-fold serial dilutions 1 μM to 0.1 pM; PE-conjugated anti-human IgG Fc; PBS, 0.1% BSA, 0.05% Tween 20

Sequence of AM14 IgG (human) (heavy, as listed by the source, chain 1 of 2): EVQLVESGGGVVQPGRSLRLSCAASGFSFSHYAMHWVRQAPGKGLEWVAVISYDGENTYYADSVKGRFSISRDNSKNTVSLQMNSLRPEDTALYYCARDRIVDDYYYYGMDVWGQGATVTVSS
Sequence of AM14 IgG (human) (light, as listed by the source, chain 2 of 2): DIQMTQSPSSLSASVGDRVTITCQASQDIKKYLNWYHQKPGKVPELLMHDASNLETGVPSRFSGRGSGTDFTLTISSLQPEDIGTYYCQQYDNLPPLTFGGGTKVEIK

Substance | fold decrease in other (AM14 IgG (human)) [fold] | IC50 of neutralisation of RSV subtype B strain 9320 (F of the virus), microneutralization on HEp-2 cells [1] [µg/mL] | IC50 of neutralisation of RSV subtype B strain 18537 (F of the virus), microneutralization on HEp-2 cells [1] [µg/mL] | fold reduction of binding against wild-type prefusion F [2] [fold] | fold reduction of binding against wild-type prefusion F [3] [fold] | EC50 [4] [nM]
cleaved monomeric RSV F (residues 1-524, without the foldon trimerization motif) (from UniProt P03420 26-109; P03420 26-524) (domain or fragment) | 100 | – | – | – | – | –
AM14 IgG (antibody) | – | 0.0046 | 0.0308 | 100 | 4 | 0.18
